From patent publication US20200370136

Tests used:
[1] = system: T7 RNA polymerase, SNAPf fusion (T7 RNAP-SNAPf), freely diffusing (bacteriophage T7?); conditions: Michaelis Km of transcription; 10 mM MgCl2, 37 C; Vmax 62 nM/s
[2] = system: T7 RNA polymerase, SNAPf fusion, anchored on DNA origami tile (T7-chip) (bacteriophage T7?); conditions: apparent Michaelis Km of transcription for externally diffusing gene; 10 mM MgCl2, 37 C; Vmax 34 nM/s

“sfGFP gene with T7 promoter (942 nt transcript)” was tested, and the K half [1] was 5.6 nM and the K half [2] was 1010 nM.
